# Measurements from publication doi:10.1101/2022.01.28.478199.
# “And” between values parts separate entries of the source, which are not always exact repeats. Identical values can stand only once.
# Target: Hsp78TR-6xHis (Hsp78 E216Q/E614Q Walker B mutant with a C-terminal 6x polyhistidine-tag) (S. cerevisiae) (UniProt P33416)
# Test: native gel or EMSA
substance,measurement,value
Hsp78TR-6xHis (Hsp78 E216Q/E614Q Walker B mutant with a C-terminal 6x polyhistidine-tag) (from UniProt P33416 45-811) (natural protein),stoichiometry N,3 and 6
